The values that follow come from PMC10212944.

The target in series [1] is T1, RPA S384D (Homo sapiens, UniProt P27694;P15927;P35244 1-616;1-270;1-121, S384D). In words: size exclusion chromatography; major 1:1, minor 2:1 protein:DNA; Stopped flow: 30 mM HEPES pH 7.8, 100 mM KCl, 5 mM MgCl2, 6% glycerol, 1 mM b-ME, 25 C; anisotropy: 50 mM Tris-acetate pH 7.5, 50 mM KCl, 5 mM MgCl2, 1 mM DTT. The conditions noted are these: protein: recombinant; copies: 1;1;1. On the technique in general: Size exclusion chromatography separates by hydrodynamic size, large species first.
T1 sequence (P27694 whole entry S384D, chain 1 of 3): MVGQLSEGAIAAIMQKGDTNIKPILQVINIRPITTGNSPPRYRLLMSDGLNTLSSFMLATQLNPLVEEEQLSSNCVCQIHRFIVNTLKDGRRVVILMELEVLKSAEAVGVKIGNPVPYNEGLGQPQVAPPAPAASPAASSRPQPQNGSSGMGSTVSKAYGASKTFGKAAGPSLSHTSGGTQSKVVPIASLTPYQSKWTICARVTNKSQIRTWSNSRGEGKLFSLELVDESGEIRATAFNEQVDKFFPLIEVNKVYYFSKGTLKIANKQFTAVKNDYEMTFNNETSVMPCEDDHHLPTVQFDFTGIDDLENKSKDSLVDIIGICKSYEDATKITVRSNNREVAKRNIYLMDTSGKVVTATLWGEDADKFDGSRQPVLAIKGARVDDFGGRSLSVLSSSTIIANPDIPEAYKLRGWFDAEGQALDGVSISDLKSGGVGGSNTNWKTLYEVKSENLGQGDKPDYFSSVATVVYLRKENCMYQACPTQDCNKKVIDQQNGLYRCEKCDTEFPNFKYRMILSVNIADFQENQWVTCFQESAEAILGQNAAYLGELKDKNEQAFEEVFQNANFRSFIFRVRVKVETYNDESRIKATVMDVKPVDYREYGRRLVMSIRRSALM
T1 sequence (P15927 whole entry, chain 2 of 3): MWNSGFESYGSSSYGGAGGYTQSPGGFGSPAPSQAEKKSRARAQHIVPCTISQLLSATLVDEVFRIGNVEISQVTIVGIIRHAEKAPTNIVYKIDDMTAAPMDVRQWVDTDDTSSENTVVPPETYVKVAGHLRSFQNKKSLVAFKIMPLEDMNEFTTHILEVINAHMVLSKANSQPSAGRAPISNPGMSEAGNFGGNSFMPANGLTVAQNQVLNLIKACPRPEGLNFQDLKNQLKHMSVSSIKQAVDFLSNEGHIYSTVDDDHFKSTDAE
T1 sequence (P35244 whole entry, chain 3 of 3): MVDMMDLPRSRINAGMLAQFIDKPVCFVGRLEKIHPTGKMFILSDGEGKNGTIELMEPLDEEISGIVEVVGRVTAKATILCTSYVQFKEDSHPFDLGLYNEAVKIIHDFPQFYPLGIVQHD

Series [2] addresses T2, RPA (wild type) (Homo sapiens, UniProt P27694;P15927;P35244 1-616;1-270;1-121). The series is described as follows: stopped-flow Trp fluorescence (koff/kon); kon 5.2e10 M-1 s-1, koff 39 s-1 as printed; Stopped flow: 30 mM HEPES pH 7.8, 100 mM KCl, 5 mM MgCl2, 6% glycerol, 1 mM b-ME, 25 C; anisotropy: 50 mM Tris-acetate pH 7.5, 50 mM KCl, 5 mM MgCl2, 1 mM DTT. To be noted: protein: recombinant; copies: 1;1;1.

The target of series [3] is T2, RPA (wild type). The series is described as follows: fluorescence anisotropy; stoichiometric binding; Stopped flow: 30 mM HEPES pH 7.8, 100 mM KCl, 5 mM MgCl2, 6% glycerol, 1 mM b-ME, 25 C; anisotropy: 50 mM Tris-acetate pH 7.5, 50 mM KCl, 5 mM MgCl2, 1 mM DTT. To be noted: protein: recombinant; copies: 1;1;1; label: 5'-FAM.
Series [4] concerns the target T1, RPA S384D. In words: fluorescence anisotropy; stoichiometric binding; same as WT; Stopped flow: 30 mM HEPES pH 7.8, 100 mM KCl, 5 mM MgCl2, 6% glycerol, 1 mM b-ME, 25 C; anisotropy: 50 mM Tris-acetate pH 7.5, 50 mM KCl, 5 mM MgCl2, 1 mM DTT. The conditions noted are these: protein: recombinant; copies: 1;1;1; label: 5'-FAM.
Series [5] concerns the target T1, RPA S384D. In words: competition (facilitated exchange, stopped-flow FRET); displaces Cy3/Cy5-RPA, kFE 0.9 s-1; Stopped flow: 30 mM HEPES pH 7.8, 100 mM KCl, 5 mM MgCl2, 6% glycerol, 1 mM b-ME, 25 C; anisotropy: 50 mM Tris-acetate pH 7.5, 50 mM KCl, 5 mM MgCl2, 1 mM DTT. The conditions noted are these: protein: recombinant; copies: 1;1;1.
Series [6] concerns the target T2, RPA (wild type). The series is described as follows: competition (facilitated exchange, stopped-flow FRET); displaces Cy3/Cy5-RPA, kFE 1.8 s-1; Stopped flow: 30 mM HEPES pH 7.8, 100 mM KCl, 5 mM MgCl2, 6% glycerol, 1 mM b-ME, 25 C; anisotropy: 50 mM Tris-acetate pH 7.5, 50 mM KCl, 5 mM MgCl2, 1 mM DTT. To be noted: protein: recombinant; copies: 1;1;1.

T2 sequence (P27694 whole entry, chain 1 of 3): as the sequence (P27694 whole entry S384D, chain 1 of 3) above, with D384S counted along it
T2 sequence (P15927 whole entry, chain 2 of 3): as the sequence (P15927 whole entry, chain 2 of 3) above
T2 sequence (P35244 whole entry, chain 3 of 3): as the sequence (P35244 whole entry, chain 3 of 3) above

By Kd is commonly meant a measure of binding affinity in units of concentration. For TTTTTTTTTTTTTTTTTTTTTTTTTTTTTTTTTTT (ssDNA) [(dT)35], the binding result in series [1] is “binds”. Further, the Kd in series [2] is 750 ± 400 pM.

Regarding TTTTTTTTTTTTTTTTTTTTTTTTTTTTTTTTTTTTTTTT (ssDNA) [5'-FAM-(dT)40], the binding result in series [3] and in series [4] was “binds” throughout.

B1: (dT)97 (ssDNA)
DNA: TTTTTTTTTTTTTTTTTTTTTTTTTTTTTTTTTTTTTTTTTTTTTTTTTTTTTTTTTTTTTTTTTTTTTTTTTTTTTTTTTTTTTTTTTTTTTTTTT
B1: the binding result in series [5] and in series [6] was “binds” each time.

Consider TTTTTTTTTTTTTTTTTTTT (ssDNA) [5'-FAM-(dT)20], for which the binding result in series [3] and in series [4] was “binds” in each case.
